Data from patent publication US20260166158A1, “HSP90-BINDING CONJUGATES AND FORMULATIONS THEREOF” (Fusion Pharmaceuticals Inc., priority 2019, published 2026).

System: NCI-H460 tumor-bearing mice (lung cancer)
Assay: Biodistribution: lutetium accumulation in tumor, plasma and healthy tissues by ICP-MS
Assay type: in vivo
Conditions: 24 h; for Kidney uptake, % ID/g 24 h / Liver uptake, % ID/g 24 h / Plasma, % ID/g 24 h / Tumor uptake, % ID/g, 24 h: second table
Protocol: Lutetium accumulation was measured in tumor, plasma and healthy tissues of NCI-H460 tumor-bearing mice (lung cancer). NCJ-H460 tumor bearing mice were dosed with 0.5 mg/kg of lutetium conjugates. At the time points indicated, mice were sacrificed and tumor, liver, kidneys and plasma were taken. All tissues were analyzed for lutetium content by ICP-MS, and lutetium uptake in % ID/g determined by the following equation: […]
Biodistribution at 24 h and Tumor/Kidney ratio (T/K), Tumor/Liver ratio (T/L), Tumor/Plasma ratio (T/P) are give in the table below.

| SMILES | T/K (Tumor/Kidney ratio) | T/L (Tumor/Liver ratio) | T/P (Tumor/Plasma ratio) | Kidney uptake, % ID/g 24 h [% ID/g] | Liver uptake, % ID/g 24 h [% ID/g] | Plasma, % ID/g 24 h [% ID/g] | Tumor uptake, % ID/g, 24 h [% ID/g] |
| --- | --- | --- | --- | --- | --- | --- | --- |
| CCNC(=O)c1nnc(-c2cc(C(C)C)c(O)cc2O)n1-c1ccc(CC2CCN(C(=O)C[C@H](NC(=O)CC[C@H](C(=O)O)N3CCN4CCN5CCN(CC3)CC(=O)[O][Lu]([O]C(=O)C5)[O]C(=O)C4)C(=O)N[C@H](C)C(=O)N3CCC(Cc4ccc(-n5c(C(=O)NCC)nnc5-c5cc(C(C)C)c(O)cc5O)cc4)CC3)CC2)cc1 [CMP28] | 0.90 | 0.79 | 1.13 | 8.90 | 10.10 | 7.11 | 8.01 |
| CCNC(=O)c1nnc(-c2cc(C(C)C)c(O)cc2O)n1-c1ccc(OC2CCN(C(=O)CCNC(=O)[C@@H](CCC(=O)N3CCC(Oc4ccc(-n5c(C(=O)NCC)nnc5-c5cc(C(C)C)c(O)cc5O)cc4)CC3)NC(=O)CCOCCOCCOCCOCCOCCOCCOCCOCCOCCOCCOCCOCCNC(=O)CN3CCN4CCN5CCN(CC3)CC(=O)[O][Lu]([O]C(=O)C4)[O]C(=O)C5)CC2)cc1 [CMP36] | 0.99 | 0.41 | 7.34 | 3.36 | 8.16 | 0.45 | 3.32 |
| CCNC(=O)c1nnc(-c2cc(C(C)C)c(O)cc2O)n1-c1ccc(C2CCN(C(=O)CCOCCOCCOCCOCCOCCOCCOCCOCCOCCOCCOCCOCCNC(=O)CN3CCN4CCN5CCN(CC3)CC(=O)[O][Lu]([O]C(=O)C4)[O]C(=O)C5)CC2)cc1 [CMP33] | 2.05 | 3.64 | 5.11 | 1.62 | 0.91 | 0.65 | 3.32 |
| CCNC(=O)c1nnc(-c2cc(C(C)C)c(O)cc2O)n1-c1ccc(C2CCN(C(=O)CCOCCOCCOCCOCCNC(=O)CN3CCN4CCN5CCN(CC3)CC(=O)[O][Lu]([O]C(=O)C4)[O]C(=O)C5)CC2)cc1 [CMP30] | 2.57 | 0.62 | 2.75 | 0.76 | 3.16 | 0.71 | 1.95 |
| CCNC(=O)c1nnc(-c2cc(C(C)C)c(O)cc2O)n1-c1ccc(CN2CCN(C(=O)C[C@H](NC(=O)CCNC(=O)[C@H](CO)NC(=O)[C@H](CO)NC(=O)[C@H](CO)NC(=O)CC[C@H](C(=O)O)N3CCN4CCN5CCN(CC3)CC(=O)[O][Lu]([O]C(=O)C5)[O]C(=O)C4)C(=O)N[C@H](C)C(=O)N3CCN(Cc4ccc(-n5c(C(=O)NCC)nnc5-c5cc(C(C)C)c(O)cc5O)cc4)CC3)CC2)cc1 [CMP44] | 3.28 | 2.34 | 2.47 | 1.34 | 1.88 | 1.78 | 4.39 |
| CCNC(=O)c1nnc(-c2cc(C(C)C)c(O)cc2O)n1-c1ccc(CC2CCN(C(=O)CCOCCOCCOCCOCCNC(=O)CN3CCN4CCN5CCN(CC3)CC(=O)[O][Lu]([O]C(=O)C4)[O]C(=O)C5)CC2)cc1 [CMP31] | 5.00 | 2.30 | 5.19 | 0.84 | 1.83 | 0.81 | 4.20 |
